One assay has as its target T1, TkTusA (Thioalkalivibrio sp. K90mix, UniProt D3SF79).
T1 sequence (D3SF79 2-76): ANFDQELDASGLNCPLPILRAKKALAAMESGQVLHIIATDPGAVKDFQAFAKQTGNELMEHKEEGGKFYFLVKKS
Kind of assay: MALDI-TOF mass shift. In kind it is biochemical. The conditions noted are these: […] tetrathionate, […] Tris-HCl pH […]; covalent.

The target of assay [1] is DsrE3B from Thioalkalivibrio sp. K90mix (Thioalkalivibrio sp. K90mix). Kind of assay: SEC. For orientation: SEC sorts molecules by how far they enter the pores of the column.
Assay [2] concerns the target DsrE3C from Hyphomicrobium denitrificans (Hyphomicrobium denitrificans). Kind of assay: SEC.

`O=S(=O)(O)SSS(=O)(=O)O` [tetrathionate]: on TkTusA, the MALDI-TOF mass shift result is reported as “TusA proteins from bacteria that were examined in this study displayed reaction with tetrathionate”.

One may read the stoichiometry N as the number of molecules, sites or subunits per partner or assembly. “DsrE3B from Thioalkalivibrio sp. K90mix (natural protein)”: the stoichiometry N in assay [1] amounted to 3.

In assay [2], “DsrE3C from Hyphomicrobium denitrificans (natural protein)” returned a stoichiometry N of 3.

The values are drawn from PMC11094781 (Protein Science : A Publication of the Protein Society, 2024).
